Drawing on the supplement of paper PMC10724198, this text covers protein stability index for 116 sequences.

± gives the standard deviation of the averaged measurements.
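Also: PSI is a weighted mean of sequencing reads over stability bins, variants kept only with over 10 reads, mCherry proximal and sfGFP distal, peptide attached via GGGS linker.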

This data set concerns Saccharomyces cerevisiae. The experiment in a line: protein stability index of tFT-peptide fusion (C-terminal peptide) (PSI (0-1 scale)); higher = more stable (slower turnover). The note with it: genetic background: wild type; temperature: 30 C. The procedure: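 Multiplexed protein stability (MPS) profiling in S. cerevisiae. Random 12-aa peptides (tFT-X12 library) are fused to the C-terminus of a sfGFP-mCherry tandem fluorescent timer, after mCherry and a GGGS linker. Cells are FACS-sorted into 8 mCherry/sfGFP bins and deep-sequenced. The protein stability index (PSI) is the read-weighted bin average, scaled from 0 (unstable) to 1 (stable). Only peptides with >10 reads are reported; cells were grown at 30 °C in SC-His with glucose.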
ARAPPSSYPPSG had a protein stability index of 0.66 ± 0.012.
Next, AREGSRGVDVGV: 0.629 ± 0.01; ARGPCRGSGSFG: 0.631 ± 0.044; ARKRRRRGHDTE: 0.725 ± 0.19.
Next, ARLATLSPEMAN: 0.729 ± 0.082; ARLPSSRLDLSP: 0.686 ± 0.056.
For ARPAPPDNVHRN, the protein stability index amounted to 0.626 ± 0.069.
ARPGSVIAQLRV: the protein stability index was 0.598 ± 0.031.
Take ARPPPPPRSSPL: the protein stability index worked out at 0.747 ± 0.072.
Next, ARRGGRKRPGAV: 0.631 ± 0.056.
Next, ARSQGEKGGDVV: 0.692 ± 0.0072; ARSVHGSLSLVM: 0.633 ± 0.042.
The sequence ARTADPAATPST registered a protein stability index of 0.687 ± 0.02.
In turn, ARTIVLGAGSGT came in with a protein stability index of 0.654 ± 0.084.
For the sequence ARVDGGGVRTDV, the protein stability index came to 0.7511 ± 0.0069.
Sequence ASALIFTPPSFL registered a protein stability index of 0.686 ± 0.12.
On to ASFHPIAPVSTP, for which the protein stability index stood at 0.6862 ± 0.0011.
Regarding ASFSLSPFLPFS, the protein stability index worked out at 0.6854 ± 0.0068.
For the sequence ASFVPPYLPSSM, the protein stability index is 0.75 ± 0.17.
Next, ASIPAPRLTPRA: 0.681 ± 0.048.
ASLAACSLTNSV: the protein stability index came out at 0.697 ± 0.053.
For ASLLSCSLLPPV, the protein stability index is 0.765 ± 0.08.
Take ASNVHSSTARFI: the protein stability index worked out at 0.687 ± 0.082.
ASPLTIHSPNLL yielded a protein stability index of 0.725 ± 0.064.
The sequence ASPSKVSGLNID registered a protein stability index of 0.785 ± 0.097.
ASRCEVGVRWGG: the protein stability index amounted to 0.683 ± 0.025.
Regarding ASRKRKVAQESR, the protein stability index was 0.688 ± 0.03.
Consider ASRWVLLGGGGV, for which the protein stability index was found to be 0.693 ± 0.03.
Turning to ASSDLQDSPIGD, the protein stability index turned out to be 0.665 ± 0.019.
Turning to ASSHDNPEEVST, the protein stability index was found to be 0.6298 ± 0.002.
Regarding ASTMAVLDYAPA, the protein stability index worked out at 0.621 ± 0.0083.
The sequence ASTTNLGNPFKA displayed a protein stability index of 0.654 ± 0.038.
Take ASVLFILAIPDL: the protein stability index was determined as 0.565 ± 0.039.
In turn, ASVRPCSCSGRQ yielded a protein stability index of 0.715 ± 0.069.
Next, ATCSILPSRLSI: 0.6124 ± 0.0011; ATHPPPPPLPPI: 0.648 ± 0.068; ATLIGIPPSLSA: 0.6643 ± 0.00067.
The sequence ATQPPPPPLPPI yielded a protein stability index of 0.636 ± 0.052.
ATQTGFGGGGPM showed a protein stability index of 0.689 ± 0.013.
Next, ATSRGFLQNLMA: 0.55737 ± 0.00018.
Next, ATVGVGSLLVKY: 0.747 ± 0.05.
The sequence AVGGDGGAWVGP showed a protein stability index of 0.7231 ± 0.0022.
Next, AVGGGTPGGVSG: 0.667 ± 0.012.
For the sequence AVGTYFSPVVLL, the protein stability index stood at 0.65 ± 0.016.
For AVNEHVPILFLL, the protein stability index turned out to be 0.62 ± 0.073.
In the case of AVRRRGGLSVGV, the protein stability index was found to be 0.654 ± 0.036.
AVSCGLGAGSSA yielded a protein stability index of 0.645 ± 0.039.
In turn, AVTWSRPRSARM had a protein stability index of 0.736 ± 0.0041.
AVVVGGGGWWWA: the protein stability index was 0.801 ± 0.12.
AVWSLMRCREFV had a protein stability index of 0.652 ± 0.028.
Next, AVYSACSRVGWV: 0.6937 ± 0.0061.
Sequence AWGELGAGVFGL showed a protein stability index of 0.68 ± 0.049.
The sequence AWLAQIKLGWGL yielded a protein stability index of 0.68 ± 0.016.
Regarding AYCVPPAFPFPL, the protein stability index came out at 0.627 ± 0.044.
AYNFMTSVVPGK: the protein stability index was found to be 0.744 ± 0.056.
For AYRLAFYGCVMR, the protein stability index stood at 0.514 ± 0.02.
Turning to AYSNVFLDPTPV, the protein stability index amounted to 0.69 ± 0.0097.
On to CAASLSHKSAPY, for which the protein stability index was found to be 0.768 ± 0.1.
In the case of CACYILHGRSNP, the protein stability index stood at 0.684 ± 0.081.
On to CAEFLFSTVLYP, for which the protein stability index turned out to be 0.735 ± 0.049.
With CCCELNTEIVQT, the protein stability index is 0.682 ± 0.059.
The sequence CCCVLMTFTSSP registered a protein stability index of 0.561 ± 0.044.
CCFVLDLSASLL returned a protein stability index of 0.625 ± 0.076.
CCKRWICLLRRK: the protein stability index is 0.646 ± 0.012.
With CCLFCLLWSLLY, the protein stability index turned out to be 0.64 ± 0.0067.
On to CDRVAQWTYPDA, for which the protein stability index was 0.783 ± 0.084.
CEEQQPGFKPLL: the protein stability index stood at 0.706 ± 0.04.
Consider CEERGLLPTQYS, for which the protein stability index amounted to 0.6686 ± 0.006.
The sequence CEGERRTLSVKP came in with a protein stability index of 0.666 ± 0.033.
As to CEHRTPLMFKRG, the protein stability index turned out to be 0.686 ± 0.048.
Next, CEKGLFLRSAYV: 0.65 ± 0.034.
With CEVCRGSDRCDV, the protein stability index is 0.609 ± 0.015.
Next, CEYPWGTVVRDG: 0.709 ± 0.045; CFCVRTGCSVGV: 0.663 ± 0.016; CFFNAASHSTYE: 0.7032 ± 0.0049.
CFHIFRKSNMNN: the protein stability index is 0.726 ± 0.11.
Sequence CFLLSSFSLPRS showed a protein stability index of 0.705 ± 0.0078.
Regarding CFLSAVFISSSL, the protein stability index came to 0.601 ± 0.045.
In turn, CFRGGLLSESVV came in with a protein stability index of 0.6714 ± 0.0011.
Next, CFRPFSARVVVL: 0.565 ± 0.016; CFSPAAPLLLPG: 0.689 ± 0.025; CGACGFGLGVWV: 0.701 ± 0.021.
CGFALFLCDGFV returned a protein stability index of 0.744 ± 0.083.
Take CGGRPPADLRLS: the protein stability index was determined as 0.69 ± 0.054.
CGHVRSLAMAHN: the protein stability index worked out at 0.68 ± 0.019.
CGLGVRGRLVLS had a protein stability index of 0.625 ± 0.026.
Next, CGLRRRAGGGGV: 0.7 ± 0.024; CGLSLRVICLEV: 0.497 ± 0.02.
Sequence CGRVWAENGSQG returned a protein stability index of 0.689 ± 0.008.
Next, CGSGWDRSVGIG: 0.531 ± 0.027; CGSHNRGLSSQL: 0.676 ± 0.022; CGVGGVRCGLLG: 0.667 ± 0.029.
Sequence CGVGWGMGEGWR had a protein stability index of 0.6956 ± 0.00081.
With CGVRQVGEIAVA, the protein stability index was found to be 0.526 ± 0.022.
Next, CGWASSWHSGLH: 0.6874 ± 0.00071; CGWCCVVCSCLV: 0.602 ± 0.06; CGWMVSAGRLGG: 0.655 ± 0.022.
On to CHALPPLLPDPL, for which the protein stability index is 0.715 ± 0.028.
Next, CIARPSGNRSYL: 0.714 ± 0.069.
Next, CINDSEYHSTMF: 0.741 ± 0.043.
CIRSSSTEPCLP displayed a protein stability index of 0.685 ± 0.00086.
Next, CIYPYSSLLMRI: 0.532 ± 0.028; CKGIGLGGGVVS: 0.599 ± 0.033.
Next, CKRDENKKIILR: 0.727 ± 0.014.
For the sequence CLAAPIQDGGLT, the protein stability index is 0.684 ± 0.086.
Sequence CLAIWSNLNECH displayed a protein stability index of 0.715 ± 0.034.
In turn, CLARPVFFSFIG yielded a protein stability index of 0.559 ± 0.029.
The sequence CLATAMARSQRE gave a protein stability index of 0.683 ± 0.024.
With CLCCTSFPPPFP, the protein stability index worked out at 0.673 ± 0.057.
CLCPPPPLPVPR displayed a protein stability index of 0.699 ± 0.092.
As to CLLLSLRVPPFS, the protein stability index came to 0.638 ± 0.012.
CLPHYSQVLLNW: the protein stability index amounted to 0.715 ± 0.098.
Turning to CLPPSPASFHPL, the protein stability index was 0.65 ± 0.056.
The sequence CLPSQSAESLTF gave a protein stability index of 0.664 ± 0.02.
Next, CLSPAFGCWWIV: 0.582 ± 0.11; CNGRREAGHVDM: 0.624 ± 0.13.
